Target: Phosphatidylinositol 4-kinase alpha (PI4KA), subunit of the PI4KA complex (human, UniProt P42356 1-2102)
Assay: cryo-EM structure

binding result: binds
B1: TTC7B, subunit of the PI4KA complex (natural protein)
chain: MATKKAGSRLETEIERCRSECQWERIPELVKQLSAKLIANDDMAELLLGESKLEQYLKEHPLRQGASPRGPKPQLTEVRKHLTAALDRGNLKSEFLQESNLIMAKLNYVEGDYKEALNIYARVGLDDLPLTAVPPYRLRVIAEAYATKGLCLEKLPISSSTSNLHVDREQDVITCYEKAGDIALLYLQEIERVILSNIQNRSPKPGPAPHDQELGFFLETGLQRAHVLYFKNGNLTRGVGRFRELLRAVETRTTQNLRMTIARQLAEILLRGMCEQSYWNPLEDPPCQSPLDDPLRKGANTKTYTLTRRARVYSGENIFCPQENTEEALLLLLISESMANRDAVLSRIPEHKSDRLISLQSASVVYDLLTIALGRRGQYEMLSECLERAMKFAFEEFHLWYQFALSLMAAGKSARAVKVLKECIRLKPDDATIPLLAAKLCMGSLHWLEEAEKFAKTVVDVGEKTSEFKAKGYLALGLTYSLQATDASLRGMQEVLQRKALLAFQRAHSLSPTDHQAAFYLALQLAISRQIPEALGYVRQALQLQGDDANSLHLLALLLSAQKHYHDALNIIDMALSEYPENFILLFSKVKLQSLCRGPDEALLTCKHMLQIWKSCYNLTNPSDSGRGSSLLDRTIADRRQLNTITLPDFSDPETGSVHATSVAASRVEQALSEVASSLQSSAPKQGPLHPWMTLAQIWLHAAEVYIGIGKPAEATACTQEAANLFPMSHNVLYMRGQIAELRGSMDEARRWYEEALAISPTHVKSMQRLALILHQLGRYSLAEKILRDAVQVNSTAHEVWNGLGEVLQAQGNDAAATECFLTALELEASSPAVPFTIIPRVL

From paper doi:10.1101/2024.04.09.588654 (bioRxiv, 2024)
